Results: patent publication US20020146711A1 (published 2002)
*: point of attachment. Biotin = O=C1N[C@H]2[C@H](CS[C@H]2CCCCC(=O)*)N1

T1: SH3 binding peptide: biotin-SGSGILAPPVPPRNTR-COOH (SMILES …)
T1 peptide: Biotin-SGSGILAPPVPPRNTR-OH

B1: GST fusion of MMSC2 PDZ domain 7 (P9) (other)
chain: RRVELWREPSKSLGISIVGGRGMGSRLSNGEVMRGIFIKHVLEDSPAGKNGTLKPGDRIVEVDGMDLRDASHEQAVEAIRKAGNPVVFMVQS
notes: GST placed N-terminal as in pGEX vectors; also called PDZ domain number 7; not shown: glutathione S-transferase (GST) encoded by pGEX vectors (Pharmacia)
B2: GST fusion of MMSC2 PDZ domain 10 (P1) (other)
chain: TTIEISKGRTGLGLSIVGGSDTLLGAIIIHEVYEEGAACKDGRLWAGDQILEVNGIDLRKATHDEAINVLRQTPQRVRLTLYR
notes: GST placed N-terminal as in pGEX vectors; also called PDZ domain number 10; not shown: glutathione S-transferase (GST) encoded by pGEX vectors (Pharmacia)
B3: GST fusion of MMSC2 PDZ domain 13 (P4) (other)
chain: KSITLERGPDGLGFSIVGGYGSPHGDLPIYVKTVFAKGAASEDGRLKRGDQIIAVNGQSLEGVTHEEAVAILKRTKGTVTLMVLS
notes: GST placed N-terminal as in pGEX vectors; also called PDZ domain number 13; not shown: glutathione S-transferase (GST) encoded by pGEX vectors (Pharmacia)
B4: MMAC1.388-403: biotin-ENEPFDEDQHTQITKV-COOH (peptide)
peptide: Biotin-ENEPFDEDQHTQITKV-OH
SMILES: CC[C@H](C)[C@H](NC(=O)[C@H](CCC(N)=O)NC(=O)[C@@H](NC(=O)[C@H](Cc1c[nH]cn1)NC(=O)[C@H](CCC(N)=O)NC(=O)[C@H](CC(=O)O)NC(=O)[C@H](CCC(=O)O)NC(=O)[C@H](CC(=O)O)NC(=O)[C@H](Cc1ccccc1)NC(=O)[C@@H]1CCCN1C(=O)[C@H](CCC(=O)O)NC(=O)[C@H](CC(N)=O)NC(=O)[C@H](CCC(=O)O)NC(=O)CCCC[C@@H]1SC[C@@H]2NC(=O)N[C@@H]21)[C@@H](C)O)C(=O)N[C@H](C(=O)N[C@@H](CCCCN)C(=O)N[C@H](C(=O)O)C(C)C)[C@@H](C)O
notes: also called MMAC1 C-terminal PDZ peptide

Key:
[1] = target: T1, SH3 binding peptide: …; experiment: ELISA, GST-PDZ domain on plate, biotin-peptide/streptavidin-alkaline phosphatase complex in solution
Source text: (§1) cDNAs encoding each of the MMSC2 PDZ domains (amino acid residues identified in Table 1), and any desired control proteins, were generated by PCR and subcloned as glutathione S-transferase (GST) fusions in pGEX vectors (Pharmacia). After sequencing to confirm expression construct integrity, the resulting clones were expressed in E. coli and the desired fusion proteins isolated with glutathione-agarose and recovered with glutathione elution. These fusion proteins or control proteins were then adsorbed to different wells of a 96-well ELISA plate and remaining sites blocked with BSA. Synthetic commercially synthesized peptides encoding the desired PDZ-binding domain (i.e., the 16 C-terminal amino acids of MMAC1, or the C-terminal peptide sequences of interacting proteins identified by the approach of Example 2, or the C-terminal peptide sequences identified by the approach of Example 3), or a control peptide, and biotinylated at the amino-terminus, were pre-bound to streptavidin-alkaline phosphatase in a 4:1 molar ratio. The biotinylated peptide streptavidin-alkaline phosphatase complexes were then blocked with free biotin. These pre-bound peptide streptavidin-alkaline phosphatase complexes were then incubated with the immobilized PDZ domains in wash buffer containing PBS, BSA and triton-X100. Unbound material was removed with repeated washes. Bound peptide/streptavidin-alkaline phosphatase complex was then quantitated by a colorimetric phosphatase assay read on a 96-well plate reader. The following peptides were used in the initial study:
(§2) The relative affinity of each of the 13 PDZ domains encoded by MMSC2 for an MMAC1 C-terminal PDZ peptide as measured by an ELISA assay is set forth in Table 2.

[2] = target: B4; experiment: as above
Source text: as §1, §2

[3] = target: B2; experiment: summary of the PDZ binding assay
[4] = target: B3; experiment: summary of the PDZ binding assay
[5] = target: B1; experiment: summary of the PDZ binding assay

A405 [1] [A405]	A405 [2] [A405]	binding result [3]	binding result [4]	binding result [5]	Binder
0.006	0.667	–	–	–	B1
0.009	0.012	–	–	–	GST fusion of MMSC2 PDZ domain 11 (P2) (other, GST placed N-terminal as in pGEX vectors; also called PDZ domain number 11; not shown: glutathione S-transferase (GST) encoded by pGEX vectors (Pharmacia)) LTIELQKKPGKGLGLSIVGKRNDTGVFVSDIVKGGIADADGRLMQGDQILMVNGEDVRNATQEAVAALLKCSLGTVTLEVGR
0.008	0.006	–	–	–	GST fusion of MMSC2 PDZ domain 3 (P13) (other, GST placed N-terminal as in pGEX vectors; also called PDZ domain number 3; not shown: glutathione S-transferase (GST) encoded by pGEX vectors (Pharmacia)) FDVELTKNVQGLGITIAGYIGDKKLEPSGIFVKSITKSSAVEHDGRIQIGDQIIAVDGTNLQGFTNQQAVEVLRHTGQTVLLTLMR
0.017	0.016	–	–	–	GST fusion of MMSC2 PDZ domain 6 (P11) (other, GST placed N-terminal as in pGEX vectors; also called PDZ domain number 6; not shown: glutathione S-transferase (GST) encoded by pGEX vectors (Pharmacia)) RTINIAKGNSSLGMTVSANKDGLGMIVRSIIHGGAISRDGRIAIGDCILSINEESTISVTNAQARAMLRRHSLIGPDIKITYVP
0.002	0.174	–	–	–	B2
0.009	0.017	–	–	–	GST fusion of MMSC2 PDZ domain 9 (P7) (other, GST placed N-terminal as in pGEX vectors; also called PDZ domain number 9; not shown: glutathione S-transferase (GST) encoded by pGEX vectors (Pharmacia)) AVDLSSFKNVQHLELPKDQGGLGIAISEEDTLSGVIIKSLTEHGVAATDGRLKVGDQILAVDDEIVVGYPIEKFISLLKTAKMTVKLTIHA
0.01	0.024	–	–	–	GST fusion of MMSC2 PDZ domain 4 (P10) (other, GST placed N-terminal as in pGEX vectors; also called PDZ domain number 4; not shown: glutathione S-transferase (GST) encoded by pGEX vectors (Pharmacia)) HVSKFSENSGLGISLEATVGHHFIRSVLPEGPVGHSGKLFSGDELLEVNGITLLGENHQDVVNILKELPIEVTMVCCR
0.006	0.001	–	–	–	GST fusion of MMSC2 PDZ domain 2 (P14) (other, GST placed N-terminal as in pGEX vectors; also called PDZ domain number 2; not shown: glutathione S-transferase (GST) encoded by pGEX vectors (Pharmacia)) ETIELVNDGSGLGFGIIGGKATGVIVKTILPGGVADQHGRLCSGDHILKIGDTDLAGMSSEQVAQVLRQCGNRVKLMIAR
0.005	0	–	–	–	GST fusion of MMSC2 PDZ domain 5 (P12) (other, GST placed N-terminal as in pGEX vectors; also called PDZ domain number 5; not shown: glutathione S-transferase (GST) encoded by pGEX vectors (Pharmacia)) QHIELEKGSKGLGFSILDYQDPIDPASTVIIIRSLVPGGIAEKDGRLLPGDRLMFVNDVNLENSSLEEAVEALKGAPSGTVRIGVAK
0.011	0.003	–	–	–	GST fusion of MMSC2 PDZ domain 12 (P3) (other, GST placed N-terminal as in pGEX vectors; also called PDZ domain number 12; not shown: glutathione S-transferase (GST) encoded by pGEX vectors (Pharmacia)) RTVEMKKGPTDSLGISIAGGVGSPLGDVPIFIAMMHPTGVAAQTQKLRVGDRIVTICGTSTEGMTHTQAVNLLKNASGSIEMQVVA
0.008	0.006	–	–	–	GST fusion of MMSC2 PDZ domain 8 (P8) (other, GST placed N-terminal as in pGEX vectors; also called PDZ domain number 8; not shown: glutathione S-transferase (GST) encoded by pGEX vectors (Pharmacia)) HMIELEKGHSGLGLSLAGNKDRSRMSVFIVGIDPNGAAGKDGRLQIADELLEINGQILYGRSHQNASSIIKCAPSKVKIIFIR
0.006	0.456	–	–	–	B3
–	–	binds	binds	binds	B4
0.007	0.011	–	–	–	GST fusion of MMSC2 PDZ domain 1 (P15) (other, GST placed N-terminal as in pGEX vectors; Adsorbed to ELISA wells; also called PDZ domain number 1; not shown: glutathione S-transferase (GST) encoded by pGEX vectors (Pharmacia)) EVFELLKPPSGGLGFSVVGLRSENRGELGIFVQEIQEGSVAHRDGRLKETDQILAINGQALDQTITHQQAISILQKAKDTVQLVIAR
